# Measured values from the nanobody polyreactivity screen of Harvey et al. (2022).
# Assay: yeast display, Sf9 membrane polyspecificity reagent, FACS + sequencing; frameworks hold sequencing errors
# Procedure, shortened: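 After 36–48 hours of galactose induction, yeast (Saccharomyces cerevisiae BJ5465) displaying a synthetic nanobody library were stained at 4 °C for 1 hour with 10% biotinylated, detergent-solubilized Sf9 membrane reagent. Streptavidin microbeads enriched the stained cells before FACS sorting into low and high (top ~1%) gates on anti-HA and streptavidin fluorescence. Each clone's polyreactivity label reflects its gate of origin.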
row,Sequence,polyreactivity (PSR sort gate)
1,QVQLVESGGGLVQAGGSLRLSCAASGSILHAYALGWYRQAPGTERELVAAINWSGGSTYYADSVKGRFTISRDNAKNTVYLQMNSLKPEDTAVYYCAKVWRYGRYEYGYWGQGTQVTVSS,high polyreactivity
2,QVQLVESGGGLVQAGGSLRLSCAASGSILIYNAMGWYRQAPGKERELVAGISRRGASTYYADSVKGRFTISRDNAKNTVYLQMNSLKPEDTAVYYCAALGKYIVAWAGDYWGQGTQVTVSS,low polyreactivity
3,QVQLVESGGGLVQAGGSLRLSCAASGSILKFNAMGWYRQAPGKERELVAAITRGTNTYYADSVKGRFTISRDNAKNTVYLQMNSLKPEDSAVYYCAARQPYNAFGYFYWGQGTQVTVSS,low polyreactivity
4,QVQLVESGGGLVQAGGSLRLSCAASGSILKYYAMGWYRQAPGKERELLAAISWSGGRTYYADSVKGRFTISRDNAKNTVYLQMNSLKPEDTAVYYCAAENYGSGSWHGPEYDYWGQGTQVTVSS,low polyreactivity
5,QVQLVESGGGLVQAGGSLRLSCAASGSILKYYAMGWYRQAPGKERELVAAISRSGGSTYYADSVKGRFTISRDNAKITVYLQMTSLKPEDTAVYYCAAYYNLPYHGSDYWGQGTQVTVSS,high polyreactivity
6,QVQLVESGGGLVQAGGSLRLSCAASGSILLGYAMGWYRQAPGKERELVAAITFRGGSTYYADSVKGRFTISRDNAKNTVYLQMNSLKPEATAVYYCAKVWWLYSSTYLRYYWGQGTQVTVSS,low polyreactivity
7,QVQLVESGGGLVQAGGSLRLSCAASGSILLRYAMGWYRQAPGKERELVAAIRTIGASTYYADSVKGRFTISRDNAKNTVYLQMNSLKPEDTAVYYCNAYLAEVLPLGKGRLYDYWGQGTQVTVSS,low polyreactivity
8,QVQLVESGGGLVQAGGSLRLSCAASGSILPRYGMGWYRQAPGKEREFVAAISWRGGRTYYADSVKGRFTISRDNAKNTVYLQMNSLKPEDTAVYYCAARANIYTRLDYWGQGTQVTVSS,high polyreactivity
9,QVQLVESGGGLVQAGGSLRLSCAASGSILRPNAMGWYRQAPGKERELVAAITTTGGSTYYADSVKGRFTISRDNAKNTVYLLMNRLKPEDTAVYYCAAEYVYLYYLYLYYYWGQGTQVTVSS,high polyreactivity
10,QVQLVESGGGLVQAGGSLRLSCAASGSILRQYAMGWYRPAPGKERELVAAINSGGSTNYADSVKGRITISRDNAKNTVYLQMNSLKPEDTAVYFCAADWSLYSHEFDYWGQGTQVTVSS,high polyreactivity
11,QVQLVESGGGLVQAGGSLRLSCAASGSILRRYAMGWYRQAPGKERELVAAINYSGGNTYYADSVKGRFTISRDNAKNTVYLQMNSLKPEDTAVYFCAAYYGPYSARYYGGYEYWGQGTQVTVSS,high polyreactivity
12,QVQLVESGGGLVQAGGSLRLSCAASGSILSGYAMGWYRQAPGKERELVAAISWSGGSTYYADSVKGRFTISRDNAKNTVYLQMNSLKPEDTAVYYCAAASVPWGGYYWGQGTQVTVSS,low polyreactivity
13,QVQLVESGGGLVQAGGSLRLSCAASGSILSHYAMGWYRQAPGKERELVAAITTRGGSTYYADSVKGRFTISRDNAKNTVFLQMNSLKPEDTAVYYCAARGGVDSAYYGYWGQGTQVTVSS,high polyreactivity
14,QVQLVESGGGLVQAGGSLRLSCAASGSILSLYTMGWYRQAPGKERELVAAITRSGGSTYYADSVKGRFTISRDNAKNTVYLQMNSLKPEDTAVYYCAATREVTSYSSAPRVYYWGQGTQVTVSS,high polyreactivity
15,QVQLVESGGGLVQAGGSLRLSCAASGSILSSYAMGWYRQAPGKERELVAAISKSGTRTYYADSVKGRFTISRDNAKNTVYLQMNSLKPEDTAVYYCAVVYYGSIFVLEYDYWGQGTQVTVSS,high polyreactivity
16,QVQLVESGGGLVQAGGSLRLSCAASGSILSYNAMGWSRQAPGKERELVATITGTGGSTRYADSVKGRFTISRDNAKNTVYLQMNSLKPEDTAVYYCATAAWWYYRIYHEFGYWGQGTQVTVSS,high polyreactivity
17,QVQLVESGGGLVQAGGSLRLSCAASGSILSYYAMGWYRLAPGKEREFVAAISSGGGTYYADSVKGRFTISRDNAKNTVYLQMNSLKPEDTAVYYCNAVHASSIQFEYWGQGTKVTVSS,low polyreactivity
18,QVQLVESGGGLVQAGGSLRLSCAASGSILSYYAMGWYRQAPGKERELVAAISSTGSTNYADSVKGRFTISRDNAKNTLYLQMNSLKPEDTAVYYCATDGDPYADEGGYWGQGTQVTVSS,high polyreactivity
19,QVQLVESGGGLVQAGGSLRLSCAASGSILTAYAMGWYRQAPGKERELVAAISRGDITKYADSVKGRFTISRDNAKNTVYLQMNRLKPEDTAVYYCAARVPRYSDSTRGRADYYWGQGTQVTVSS,high polyreactivity
20,QVQLVESGGGLVQAGGSLRLSCAASGSILTDNAMGWYRQAPGKERELVASITGSGGSTYYADSVKGRFTISRDNAKNTVYLQMNSLKPEDTAVYYCAASYRLRYGYWGQGTQVTVSS,high polyreactivity

row,Sequence,polyreactivity (PSR sort gate)
1,QVQLVESGGGLVQAGGSLRLSCAASGSILTDNAMRWYRQAPGKERELVAAITSGGYTYYADSVKGRFTISRDNAKNTVYLHMNILKPEDTAVYYCNADPYTYSYGMYYWGQGTQVTVSS,low polyreactivity
2,QVQLVESGGGLVQAGGSLRLSCAASGSILTYNAMGWYRQAPGKERELVAAITSSGNTNYADSVKGRFTISRDNAKNTVYLQMNSLKPEDTAVYYCARDLREWGQGTQVTVSS,low polyreactivity
3,QVQLVESGGGLVQAGGSLRLSCAASGSILWENAMGWYRQAPGKERELVATISVSGGGTYYADSVKGRFTISRDNAKNTVYLQMNSLKPEDTAVYYCAAPGFPSRNGFGYWGQGTQVTVSS,low polyreactivity
4,QVQLVESGGGLVQAGGSLRLSCAASGSILWEYAMGWYRQAHGKERELVATISSGGCSTNYADSVKGRFTISRDNAKHNFYLPMKSLKPEDTAVYYCNALTSYLVTYEFDSWGIGTQVTVSS,low polyreactivity
5,QVQLVESGGGLVQAGGSLRLSCAASGSILWLNAMGWYRPAPGKERELVADITRGGSTYYADSVKGRFTISRDNAKNTVYLQMNSLKPEDTAVYYCAADAYTGQIPYYYFEHYYWGQGTQVTVSS,high polyreactivity
6,QVQLVESGGGLVQAGGSLRLSCAASGSILWQYAMGWYRQAPGKERELVAAISTGGSTYYAESVKGRFTISRDNAKNTVYLQMNSLKPEDTAVYYCAAYVDYSVYFGGGYWGQGTQVTVSS,low polyreactivity
7,QVQLVESGGGLVQAGGSLRLSCAASGSILYFNAMGWYRQAPGKERELVAAISRTGSRTYYADSVKGRFTISRDNAKNTVYLQMNSLKPEDTAVFYCAAYNGITSHLRFDYWGQGTQVTVSS,high polyreactivity
8,QVQLVESGGGLVQAGGSLRLSCAASGSILYIYAMGWYRQAPGKERELVAAISKNSADTYYADSVKGRFTISRDNAKNTVYLQMNSLKPEDTAVYYCAADVVKVAAYNYWGQGSQVTVSS,low polyreactivity
9,QVQLVESGGGLVQAGGSLRLSCAASGSILYIYAMGWYSQAPGKERELVASINSGGSTNYADSVKGRFTISRDNAKNTVYLQMNSLKPEDTAVYYCNADTIPDGEDRYDYWGQGTQVTVSS,low polyreactivity
10,QVQLVESGGGLVQAGGSLRLSCAASGSILYPYAMGWYRQAPGKERELVAAISRGGSTNYADSVKGRFTISRDNAKNTVYLQMNSLKPEDTAVYYCATAYTRFSQRYEYYVIYWQNDYWGQGTQVTVSS,low polyreactivity
11,QVQLVESGGGLVQAGGSLRLSCAASGSILYRYTMGWYIQAPGKERELVAAITKRGGRTYYADSVKGRFTISRDTAKNTVYLQMNSLKREDTAVYYCAAKYYTGGSFEMYYWGQGTQVTVSS,high polyreactivity
12,QVQLVESGGGLVQAGGSLRLSCAASGSILYRYTMGWYRQAPGIERELVAAITKRGGRTYYADSVKGRFTISRDNAKNTVYLQTNSLKPEDTAVYYCAAKYYTGGSFEMYYWGQGTQVTVSS,high polyreactivity
13,QVQLVESGGGLVQAGGSLRLSCAASGSILYTNAMGWYRQAPGKERELVAAITTSGASTYYADSVKGRFTISRDNAKNTVYLQMNSLKPEDTAVYYCAATDYFPYDTYYAHDYWGQGTQVTVSS,high polyreactivity
14,QVQLVESGGGLVQAGGSLRLSCAASGSILYVNAMGWYRQATGKERELVAAITRTGGSTYYADSVKGRFTISRDNAKNTVYLQMNSLKPEDTAVYYCNAASSLPGYDYWGQGTQVTVSS,high polyreactivity
15,QVQLVESGGGLVQAGGSLRLSCAASGSILYVYALAWYRQAPGKERALVAAIYSGASTYYADSVKGRFTISPDNAKNTVYFQMNSLIPEETAVYYCAAYVFFQTYFSYYVEGDYWGQGTQVTVSS,low polyreactivity
16,QVQLVESGGGLVQAGGSLRLSCAASGSILYVYAMGRYRQAPGKERELVAAISGSGGSTYYADSVKGRFTISRDNAKNTVYLQMNSLKPEDTAVYYCAADYATVTWRGIAYDYWGLGTQVTVSS,low polyreactivity
17,QVQLVESGGGLVQAGGSLRLSCAASGSILYWYAMGWYRQAPGKERELVAAITSSGDSTDYADSVKGRFTISRDNAKKTVYLQMNILKPEDSAVYYCNVQPVYADHFTEFDYCGQGTQVTVSS,low polyreactivity
18,QVQLVESGGGLVQAGGSLRLSCAASGSILYYAMGWYRQAPGKERELVATITRGGSTYYADSVKGRFTISRDNAKNTVYLQMNSLKPDDTAVYYCAARRAVRVGYYWHDISSYDYWGQGTQVTVPS,low polyreactivity
19,QVQLVESGGGLVQAGGSLRLSCAASGSINYYAMGWYRQAPVKERELVAAITRSGGGTYYADSVKGRFTISRDNAMNTVYLQMNSLIPEDTAVYYCAAARYSRAQPNWTYNYWGQGTQVTVSS,high polyreactivity
20,QVQLVESGGGLVQAGGSLRLSCAASGSISAIYTMGWYRQATGKERELVAAITGSAGSTYADSVKGRFTISRDNAKNTVYLQMNSLKPEDTAVYYCNAQPGDDVKVKLDYWGQGSQVTVSS,low polyreactivity
